Measured values from US10253076B2, “Peptides and combination of peptides for use in immunotherapy against ovarian cancer and other cancers” (immatics biotechnologies GmbH, priority 2015, dated 2019).

Target: HLA-A*02:01 (Homo sapiens, UniProt P04439, D140Y/D185E/D98H/E176V/E277Q/G131W/G231S/I119V/I121R/I166T/I218V/L300P/L318F/N151K/N90K/P208A/P217A/Q86G/Q94H/R138H/R169H/T345S)
Assay: MHC binding assay (UV-ligand exchange, beta2m ELISA, peptide exchange yield)
Settings: binding of HLA-class I restricted peptides to HLA-A*02:01, ranged by peptide exchange yield (UV-ligand exchange, β2m ELISA)
Text: Candidate peptides for T cell based therapies according to the present invention were further tested for their MHC binding capacity (affinity). The individual peptide-MHC complexes were produced by UV-ligand exchange, where a UV-sensitive peptide is cleaved upon UV-irradiation, and exchanged with the peptide of interest as analyzed. Only peptide candidates that can effectively bind and stabilize the peptide-receptive MHC molecules prevent dissociation of the MHC complexes. To determine the yield of the exchange reaction, an ELISA was performed based on the detection of the light chain (β2m) of stabilized MHC complexes. The assay was performed as generally described in Rodenko et al. (Rodenko et al., 2006).
96 well MAXISorp plates (NUNC) were coated over night with 2ug/ml streptavidin in PBS at room temperature, washed 4× and blocked for 1 h at 37° C. in 2% BSA containing blocking buffer. […] Peptide-MHC monomers of the UV-exchange reaction were diluted 100 fold in blocking buffer. Samples were incubated for 1 h at 37° C., washed four times, incubated with 2ug/ml HRP conjugated anti-82m for 1 h at 37° C., washed again and detected with TMB solution that is stopped with […]. Absorption was measured at 450 nm. Candidate peptides that show a high exchange yield (preferably higher than 50%, most preferred higher than 75%) are generally preferred for a generation and production of antibodies or fragments thereof, and/or T cell receptors or fragments thereof, as they show sufficient avidity to the MHC molecules and prevent dissociation of the MHC complexes.

Row | Peptide exchange | Substance
1 | ″+++″ (≥50% = +++) | 90 (TLLQIIETV; listed as Homo sapiens) [compound 90]
2 | ″+++″ (≥50% = +++) | 485 (NVPDSFNEV; listed as Homo sapiens) [compound 485]
3 | ″+++″ (≥50% = +++) | 598 (FLFPHSVLV; listed as Homo sapiens) [compound 598]
4 | ″+++″ (≥50% = +++) | 593 (GLPRFGIEMV; listed as Homo sapiens) [compound 593]
5 | ″++″ (≥20% = ++) | 251 (ALYTGFSILV; listed as Homo sapiens) [compound 251]
6 | ″++++″ (≥75% = ++++) | 395 (ALALGGIAVV; listed as Homo sapiens) [compound 395]
7 | ″+++″ (≥50% = +++) | 452 (ILLEHGADPNL; listed as Homo sapiens) [compound 452]
8 | ″++″ (≥20% = ++) | 115 (AIAGAGILYGV; listed as Homo sapiens) [compound 115]
9 | ″++″ (≥20% = ++) | 429 (GLVNDLARV; listed as Homo sapiens) [compound 429]
10 | ″++++″ (≥75% = ++++) | 108 (ALFPGVALLLA; listed as Homo sapiens) [compound 108]
11 | ″+++″ (≥50% = +++) | 188 (GLFPVTPEAV; listed as Homo sapiens) [compound 188]
12 | ″++″ (≥20% = ++) | 180 (FQIDPHSGLVTV; listed as Homo sapiens) [compound 180]
13 | ″+++″ (≥50% = +++) | 49 (YLPAVFEEV; listed as Homo sapiens) [compound 49]
14 | ″+++″ (≥50% = +++) | 309 (GLFDGVPTTA; listed as Homo sapiens) [compound 309]
15 | ″++″ (≥20% = ++) | 9 (GAAKDLPGV; listed as Homo sapiens) [compound 9]
16 | ″+++″ (≥50% = +++) | 563 (WLLPYNGVTV; listed as Homo sapiens) [compound 563]
17 | ″+++″ (≥50% = +++) | 26 (ALLELAEEL; listed as Homo sapiens) [compound 26]
18 | ″+++″ (≥50% = +++) | 40 (TLLVKVFSV; listed as Homo sapiens) [compound 40]
19 | ″++″ (≥20% = ++) | 133 (KVLSNIHTV; listed as Homo sapiens) [compound 133]
20 | ″++″ (≥20% = ++) | 408 (VLDDSIYLV; listed as Homo sapiens) [compound 408]
21 | ″+++″ (≥50% = +++) | 296 (FMEGAIIYV; listed as Homo sapiens) [compound 296]
22 | ″++″ (≥20% = ++) | 403 (KLYDRILRV; listed as Homo sapiens) [compound 403]
23 | ″++″ (≥20% = ++) | 33 (VLLSLLEKV; listed as Homo sapiens) [compound 33]
24 | ″+++″ (≥50% = +++) | 158 (KLFDVDEDGYI; listed as Homo sapiens) [compound 158]

Row | Peptide exchange | Substance
25 | ″+++″ (≥50% = +++) | 487 (LLINSVFHV; listed as Homo sapiens) [compound 487]
26 | ″+++″ (≥50% = +++) | 45 (SLWQDIPDV; listed as Homo sapiens) [compound 45]
27 | ″++++″ (≥75% = ++++) | 349 (SLTEYLQNV; listed as Homo sapiens) [compound 349]
28 | ″+++″ (≥50% = +++) | 152 (ILFEDIFDV; listed as Homo sapiens) [compound 152]
29 | ″++″ (≥20% = ++) | 376 (AMFESSQNVLL; listed as Homo sapiens) [compound 376]
30 | ″++++″ (≥75% = ++++) | 62 (VLLDVSAGQLLM; listed as Homo sapiens) [compound 62]
31 | ″+++″ (≥50% = +++) | 357 (SMHDLVLQV; listed as Homo sapiens) [compound 357]
32 | ″++++″ (≥75% = ++++) | 289 (VLLEIEDLQV; listed as Homo sapiens) [compound 289]
33 | ″++++″ (≥75% = ++++) | 371 (FLQAHLHTA; listed as Homo sapiens) [compound 371]
34 | ″++++″ (≥75% = ++++) | 620 (KLLNKIYEA; listed as Homo sapiens) [compound 620]
35 | ″+++″ (≥50% = +++) | 184 (YLMDINGKMWL; listed as Homo sapiens) [compound 184]
36 | ″+++″ (≥50% = +++) | 601 (SAFPFPVTV; listed as Homo sapiens) [compound 601]
37 | ″++″ (≥20% = ++) | 548 (ALWENPESGEL; listed as Homo sapiens) [compound 548]
38 | ″+++″ (≥50% = +++) | 257 (SIFSAFLSV; listed as Homo sapiens) [compound 257]
39 | ″++″ (≥20% = ++) | 400 (SLLTEQDLWTV; listed as Homo sapiens) [compound 400]
40 | ″++″ (≥20% = ++) | 333 (FLPDANSSV; listed as Homo sapiens) [compound 333]
41 | ″+++″ (≥50% = +++) | 151 (KILQQLVTL; listed as Homo sapiens) [compound 151]
42 | ″++″ (≥20% = ++) | 87 (ALPEAPAPLLPHIT; listed as Homo sapiens) [compound 87]
43 | ″++″ (≥20% = ++) | 373 (SLLEDKGLAEV; listed as Homo sapiens) [compound 373]
44 | ″++″ (≥20% = ++) | 222 (NLIENVQRL; listed as Homo sapiens) [compound 222]
45 | ″+++″ (≥50% = +++) | 175 (YLFENISQL; listed as Homo sapiens) [compound 175]
46 | ″+++″ (≥50% = +++) | 297 (VLADIELAQA; listed as Homo sapiens) [compound 297]
47 | ″+++″ (≥50% = +++) | 366 (RLLDMGETDLML; listed as Homo sapiens) [compound 366]
48 | ″+++″ (≥50% = +++) | 192 (KMLDGASFTL; listed as Homo sapiens) [compound 192]

Row | Peptide exchange | Substance
49 | ″+++″ (≥50% = +++) | 241 (SLVEVNPAYSV; listed as Homo sapiens) [compound 241]
50 | ″+++″ (≥50% = +++) | 537 (TLAPGEVLRSV; listed as Homo sapiens) [compound 537]
51 | ″++″ (≥20% = ++) | 145 (FLATSGTLAGI; listed as Homo sapiens) [compound 145]
52 | ″+++″ (≥50% = +++) | 465 (QLCDLNAEL; listed as Homo sapiens) [compound 465]
53 | ″++″ (≥20% = ++) | 459 (ALITEVVRL; listed as Homo sapiens) [compound 459]
54 | ″+++″ (≥50% = +++) | 618 (VLFDSESIGIYV; listed as Homo sapiens) [compound 618]
55 | ″+++″ (≥50% = +++) | 378 (ALGYFVPYV; listed as Homo sapiens) [compound 378]
56 | ″+″ (≥10% = +) | 230 (ILVDWLVEV; listed as Homo sapiens) [compound 230]
57 | ″++″ (≥20% = ++) | 114 (SLVGEPILQNV; listed as Homo sapiens) [compound 114]
58 | ″++″ (≥20% = ++) | 128 (YLFDDPLSAV; listed as Homo sapiens) [compound 128]
59 | ″++″ (≥20% = ++) | 565 (ALQETPTSV; listed as Homo sapiens) [compound 565]
60 | ″+++″ (≥50% = +++) | 587 (VMNDRLYAI; listed as Homo sapiens) [compound 587]
61 | ″+++″ (≥50% = +++) | 67 (TLLAEALVTV; listed as Homo sapiens) [compound 67]
62 | ″+++″ (≥50% = +++) | 517 (LLMPIPEGLTL; listed as Homo sapiens) [compound 517]
63 | ″++″ (≥20% = ++) | 258 (ELAERVPAI; listed as Homo sapiens) [compound 258]
64 | ″+++″ (≥50% = +++) | 571 (LLLTTIPQI; listed as Homo sapiens) [compound 571]
65 | ″++++″ (≥75% = ++++) | 438 (KLLPLAGLYL; listed as Homo sapiens) [compound 438]
66 | ″+++″ (≥50% = +++) | 564 (TVTNAVVTV; listed as Homo sapiens) [compound 564]
67 | ″+++″ (≥50% = +++) | 304 (MTLGQIYYL; listed as Homo sapiens) [compound 304]
68 | ″+++″ (≥50% = +++) | 264 (SLQEQLHSV; listed as Homo sapiens) [compound 264]
69 | ″+++″ (≥50% = +++) | 54 (SLLEQGKEPWMV; listed as Homo sapiens) [compound 54]
70 | ″+++″ (≥50% = +++) | 284 (ILLSQTTGV; listed as Homo sapiens) [compound 284]
71 | ″+++″ (≥50% = +++) | 467 (FLAKDFNFL; listed as Homo sapiens) [compound 467]
